Test results reported in publication PMC4714197, “The Tomato Nucleotide-binding Leucine-rich Repeat Immune Receptor I-2 Couples DNA-binding to Nucleotide-binding Domain Nucleotide Exchange” (The Journal of Biological Chemistry, 2015).

Key:
[1] = test system: R1-NB (NB subdomain of Os02g_25900) (Oryza sativa (rice)); test: EMSA; conditions: apparent Kd; EMSA: 20 mM Tris-HCl pH 8.0, 60 mM NaCl, 2 mM EDTA, 1 mM DTT, 10% glycerol, 0.1 mg/ml BSA, 0.15 nM nucleic acid, 20 min on ice (nucleotide tests + 10 mM ZnCl2 …)
I-2_1–519 [2] = molecular target: T1, I-2_1–519 (Solanum lycopersicum, UniProt Q9XET3, S233F); test: EMSA of […]-dsDNA binding with nucleotide; conditions: 5 uM ADP compared with 5 uM ATP; 10 mM ZnCl2, pH 8.0, on ice
T1 construct: gene I2; CC-NB-ARC domains, residues 1-519, LRR lacking

I-2_1–519 [3] = molecular target: T2, I-2_1–519 (Solanum lycopersicum, UniProt Q9XET3); test: EMSA of […]-dsDNA binding with nucleotide; conditions: 5 uM ADP, 10 mM ZnCl2, pH 8.0, on ice; ADP lowers DNA binding
T2 construct: gene I2; CC-NB-ARC domains, residues 1-519, LRR lacking

I-2_1–519 [4] = molecular target: T2, I-2_1–519; test: ATPase assay, 3H-ATP, TLC; type: biochemical; conditions: 5 uM ATP, 10 mM MgCl2, pH 7.5, 37 °C; without and with 2 uM DNA; labelled compound
[5] = molecular target: T3, I-2 CC-NB-ARC WT (I-2 1-519) (Solanum lycopersicum (tomato), UniProt Q9XET3 1-519); test: EMSA; apparent Kd; EMSA: 20 mM Tris-HCl pH 8.0, 60 mM NaCl, 2 mM EDTA, 1 mM DTT, 10% glycerol, 0.1 mg/ml BSA, 0.15 nM nucleic acid, 20 min on ice (nucleotide tests + 10 mM ZnCl2 as printed); anisotropy: 6.7 mM Tris-HCl pH 8.0, 3.3 mM Na acetate, 2 mM EDTA, 10 nM DNA, 25 C; P1: 20 mM Tris acetate pH 7.5, 10 mM Mg acetate, 100 mM NaCl, 37 C; conditions: protein: recombinant, label: 32P end label
T3 sequence: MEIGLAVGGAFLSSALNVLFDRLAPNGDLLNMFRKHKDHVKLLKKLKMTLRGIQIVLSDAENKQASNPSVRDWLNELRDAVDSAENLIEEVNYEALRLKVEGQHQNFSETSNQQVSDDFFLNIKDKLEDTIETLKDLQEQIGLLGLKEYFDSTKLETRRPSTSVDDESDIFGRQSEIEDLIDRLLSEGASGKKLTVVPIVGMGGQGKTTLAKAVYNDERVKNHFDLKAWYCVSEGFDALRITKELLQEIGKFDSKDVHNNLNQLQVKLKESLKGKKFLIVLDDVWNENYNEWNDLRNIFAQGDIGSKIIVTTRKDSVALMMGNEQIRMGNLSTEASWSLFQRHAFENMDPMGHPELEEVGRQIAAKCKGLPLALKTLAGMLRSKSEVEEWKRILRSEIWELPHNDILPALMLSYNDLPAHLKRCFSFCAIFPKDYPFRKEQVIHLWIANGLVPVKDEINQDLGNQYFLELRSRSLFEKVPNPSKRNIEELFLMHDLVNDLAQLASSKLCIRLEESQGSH

I-2 CC-NB-ARC S233F = molecular target: T4, I-2 CC-NB-ARC S233F (Solanum lycopersicum (tomato), UniProt Q9XET3 1-519, S233F); test: EMSA; indistinguishable from WT; EMSA: 20 mM Tris-HCl pH 8.0, 60 mM NaCl, 2 mM EDTA, 1 mM DTT, 10% glycerol, 0.1 mg/ml BSA, 0.15 nM nucleic acid, 20 min on ice (nucleotide tests + 10 mM ZnCl2 as printed); anisotropy: 6.7 mM Tris-HCl pH 8.0, 3.3 mM Na acetate, 2 mM EDTA, 10 nM DNA, 25 C; P1: 20 mM Tris acetate pH 7.5, 10 mM Mg acetate, 100 mM NaCl, 37 C; conditions: protein: recombinant; label: 32P end label; blunt
T4 sequence: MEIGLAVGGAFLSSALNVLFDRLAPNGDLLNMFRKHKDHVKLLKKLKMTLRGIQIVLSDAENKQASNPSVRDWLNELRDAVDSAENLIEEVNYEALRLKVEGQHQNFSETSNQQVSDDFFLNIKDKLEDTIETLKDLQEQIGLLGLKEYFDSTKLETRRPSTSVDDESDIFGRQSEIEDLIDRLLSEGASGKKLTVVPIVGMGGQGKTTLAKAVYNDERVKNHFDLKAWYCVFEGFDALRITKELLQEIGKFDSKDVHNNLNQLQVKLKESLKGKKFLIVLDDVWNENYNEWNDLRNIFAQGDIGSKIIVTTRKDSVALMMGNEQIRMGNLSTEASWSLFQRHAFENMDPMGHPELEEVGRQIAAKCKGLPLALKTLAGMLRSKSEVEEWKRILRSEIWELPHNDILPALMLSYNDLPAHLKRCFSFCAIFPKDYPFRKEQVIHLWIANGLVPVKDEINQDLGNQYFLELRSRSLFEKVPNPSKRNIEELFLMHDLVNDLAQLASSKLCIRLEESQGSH

I-2 CC-NB-ARC K207R [6] = molecular target: T5, I-2 CC-NB-ARC K207R (Solanum lycopersicum (tomato), UniProt Q9XET3 1-519, K207R); test: EMSA; apparent Kd; EMSA: 20 mM Tris-HCl pH 8.0, 60 mM NaCl, 2 mM EDTA, 1 mM DTT, 10% glycerol, 0.1 mg/ml BSA, 0.15 nM nucleic acid, 20 min on ice (nucleotide tests + 10 mM ZnCl2 as printed); anisotropy: 6.7 mM Tris-HCl pH 8.0, 3.3 mM Na acetate, 2 mM EDTA, 10 nM DNA, 25 C; P1: 20 mM Tris acetate pH 7.5, 10 mM Mg acetate, 100 mM NaCl, 37 C; conditions: protein: recombinant; label: 32P end label; blunt
T5 sequence: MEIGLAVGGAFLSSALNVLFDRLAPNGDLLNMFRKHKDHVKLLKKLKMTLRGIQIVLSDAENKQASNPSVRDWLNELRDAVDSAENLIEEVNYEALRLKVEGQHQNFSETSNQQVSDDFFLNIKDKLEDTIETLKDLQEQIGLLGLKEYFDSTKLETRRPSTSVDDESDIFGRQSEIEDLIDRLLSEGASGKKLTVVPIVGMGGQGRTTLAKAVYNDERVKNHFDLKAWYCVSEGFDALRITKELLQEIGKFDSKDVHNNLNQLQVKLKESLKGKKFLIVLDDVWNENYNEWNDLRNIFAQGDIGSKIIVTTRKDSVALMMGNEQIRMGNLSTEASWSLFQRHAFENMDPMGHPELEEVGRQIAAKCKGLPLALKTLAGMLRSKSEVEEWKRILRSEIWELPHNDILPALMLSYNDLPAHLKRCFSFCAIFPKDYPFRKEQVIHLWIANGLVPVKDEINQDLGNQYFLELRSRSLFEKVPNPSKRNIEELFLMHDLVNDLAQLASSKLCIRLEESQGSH

[7] = molecular target: T3, I-2 CC-NB-ARC WT (I-2 1-519); test: EMSA; 5 uM ATP, 10 mM ZnCl2 (so in the source); EMSA: 20 mM Tris-HCl pH 8.0, 60 mM NaCl, 2 mM EDTA, 1 mM DTT, 10% glycerol, 0.1 mg/ml BSA, 0.15 nM nucleic acid, 20 min on ice (nucleotide tests + 10 mM ZnCl2 as printed); anisotropy: 6.7 mM Tris-HCl pH 8.0, 3.3 mM Na acetate, 2 mM EDTA, 10 nM DNA, 25 C; P1: 20 mM Tris acetate pH 7.5, 10 mM Mg acetate, 100 mM NaCl, 37 C; conditions: protein: recombinant; label: 32P end label; blunt
I-2 CC-NB-ARC K207R [8] = molecular target: T5, I-2 CC-NB-ARC K207R; test: fluorescence anisotropy; EMSA: 20 mM Tris-HCl pH 8.0, 60 mM NaCl, 2 mM EDTA, 1 mM DTT, 10% glycerol, 0.1 mg/ml BSA, 0.15 nM nucleic acid, 20 min on ice (nucleotide tests + 10 mM ZnCl2 as printed); anisotropy: 6.7 mM Tris-HCl pH 8.0, 3.3 mM Na acetate, 2 mM EDTA, 10 nM DNA, 25 C; P1: 20 mM Tris acetate pH 7.5, 10 mM Mg acetate, 100 mM NaCl, 37 C; conditions: protein: recombinant; label: fluorescein end label on SS1s; blunt
[9] = molecular target: T3, I-2 CC-NB-ARC WT (I-2 1-519); test: as above; conditions: protein: recombinant; label: fluorescein end label on SS1s; blunt

Work on “TGGGTCAACGTGGGCAAAGATGTCCTAGCAATGTAATCGTCTATGACGTT (double strand) [SS1/SS2 dsDNA (50 bp)]” yielded a Kd [1] of 2750 nM.

“UGGGUCAACGUGGGCAAAGAUGUCCUAGCAAUGUAAUCGUCUAUGACGUU [ssRNA sense strand (50 nt)]” showed a Kd [1] of 12400 nM.

In the case of Nc1ncnc2c1ncn2[C@@H]1O[C@H](COP(=O)(O)OP(=O)(O)O)[C@@H](O)[C@H]1O [ADP], the “% DNA binding with ADP relative to ATP” value (I-2_1–519 [2]) is reported as 61 ± 7% and the “ratio of DNA binding with ADP vs with ATP or no nucleotide” value (I-2_1–519 [3]) is reported as ~ 0.65.

With Nc1ncnc2c1ncn2[C@@H]1O[C@H](COP(=O)(O)OP(=O)(O)OP(=O)(O)O)[C@@H](O)[C@H]1O [ATP] the ATPase activity (I-2_1–519 [4]) was “The CC-NB-ARC domain of I-2 has a very low intrinsic ATPase activity in vitro”.

In the case of “TGGGTCAACGTGGGCAAAGATGTCCTAGCAATGTAATCGTCTATGACGTT [SS1 ssDNA (50 nt)]”, the Kd [1] is reported as 3340 nM.

Molecule TGGGTCAACGTGGGCAAAGATGTCCTAGCAATGTAATCGTCTATGACGTT (ssDNA) [SS1 ssDNA (50 nt)] has a Kd ([5]; single strand) of 150 ± 10 nM.

B1: SS1/SS2 dsDNA (50 bp) (dsDNA)
DNA 1: TGGGTCAACGTGGGCAAAGATGTCCTAGCAATGTAATCGTCTATGACGTT
DNA 2: AACGTCATAGACGATTACATTGCTAGGACATCTTTGCCCACGTTGACCCA
With B1 the binding result (I-2 CC-NB-ARC S233F) was “binds”, the Kd (I-2 CC-NB-ARC K207R [6]) was 230 ± 10 nM and the Kd ([5]; blunt) was 220 ± 20 nM. The binding signal [7] was ~1 ratio to no nucleotide.

B2: SS1s/SS2s dsDNA (20 bp), anisotropy (dsDNA)
DNA 1: TGGGTCAACGTGGGCAAAGA
DNA 2: TCTTTGCCCACGTTGACCCA
In the case of B2, the Kd (I-2 CC-NB-ARC K207R [8]) is reported as 940 ± 90 nM and the Kd [9] is reported as 320 ± 50 nM.
